Measurements taken from patent publication US20210147504A1.

Molecular target: rat ANP receptor (NPR-A) (rat) (UniProt P18910)
Test: cell-based or functional assay

rat ANP receptor (NPR-A) (rat), sequence (P18910 29-1057): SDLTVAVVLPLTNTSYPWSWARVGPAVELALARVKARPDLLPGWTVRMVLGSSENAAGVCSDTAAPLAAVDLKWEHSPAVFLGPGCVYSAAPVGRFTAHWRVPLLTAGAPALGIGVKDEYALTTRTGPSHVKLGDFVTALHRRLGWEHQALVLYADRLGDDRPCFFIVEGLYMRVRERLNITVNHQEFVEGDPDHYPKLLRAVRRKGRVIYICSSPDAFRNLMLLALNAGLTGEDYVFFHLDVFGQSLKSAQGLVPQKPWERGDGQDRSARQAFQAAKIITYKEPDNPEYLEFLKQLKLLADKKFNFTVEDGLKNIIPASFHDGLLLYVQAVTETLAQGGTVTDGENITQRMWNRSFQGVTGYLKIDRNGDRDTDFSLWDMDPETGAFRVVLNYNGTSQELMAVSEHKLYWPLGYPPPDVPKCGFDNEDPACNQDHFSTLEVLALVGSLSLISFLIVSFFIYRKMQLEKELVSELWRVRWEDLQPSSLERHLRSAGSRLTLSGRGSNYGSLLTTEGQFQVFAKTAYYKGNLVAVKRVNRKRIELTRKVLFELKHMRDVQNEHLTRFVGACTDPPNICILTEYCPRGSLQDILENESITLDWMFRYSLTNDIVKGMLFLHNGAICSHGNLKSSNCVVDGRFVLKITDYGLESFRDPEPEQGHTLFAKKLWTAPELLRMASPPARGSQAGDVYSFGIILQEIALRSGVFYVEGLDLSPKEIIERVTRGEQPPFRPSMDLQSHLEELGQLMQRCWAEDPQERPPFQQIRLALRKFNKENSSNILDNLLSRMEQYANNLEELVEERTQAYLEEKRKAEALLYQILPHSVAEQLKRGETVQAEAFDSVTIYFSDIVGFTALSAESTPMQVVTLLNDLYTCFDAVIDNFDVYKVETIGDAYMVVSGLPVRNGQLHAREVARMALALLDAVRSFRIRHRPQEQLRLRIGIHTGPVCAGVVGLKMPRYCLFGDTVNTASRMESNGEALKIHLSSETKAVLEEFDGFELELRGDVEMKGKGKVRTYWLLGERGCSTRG

EC50, fluorescence signal of rat NPR-A cGMP reporter CHO cell line (GCaMP6/CNGA2): 2.9 nM
Substance: BNP (Bachem, H-5968) (peptide)
